One block for each compound: values may come before it.
Columns and labels:
[1] = target: T1, Human MMP-1 catalytic domain (Homo sapiens, UniProt P03956); experiment: Time-dependent aggregation (OD350) of ELP-substrate fusion with MMP-1 in proteolysis buffer; type: biochemical; settings: 50 nM MMP-1 inhibitor added prior to 50 ng/mL (2.5 nM) MMP-1; ELP-substrate fusion 100 μM, 40° C., protease buffer; even after 900 minutes
T1 construct: Human MMP-1 catalytic domain (recombinant, produced in E. coli, 19.9 kDa, >95% purity); purchased Enzo Life Sciences (Farmingdale, N.Y.); host or cells: E. coli
T1 sequence (P03956 100-269 limits assumed): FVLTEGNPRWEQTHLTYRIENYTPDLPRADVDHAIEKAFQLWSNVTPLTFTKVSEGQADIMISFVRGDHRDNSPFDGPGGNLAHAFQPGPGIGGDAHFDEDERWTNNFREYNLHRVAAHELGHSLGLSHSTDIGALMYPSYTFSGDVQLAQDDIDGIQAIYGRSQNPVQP

[2] = tested on: endogenous MMP-1 in human serum; experiment: Time-dependent aggregation (OD350) of ELP-substrate fusion in diluted human serum (40%); type: biochemical; settings: diluted serum, without any added MMP-1, after 400 minutes, 37° C.
Experimental: We performed the proteolysis reactions either in 100% protease buffer or in a mixture of human serum and buffer (40% (v/v) serum, 50% (v/v) buffer, 10% (v/v) ELP-substrate solution in water). The proteolysis buffer (100 mM HEPES, CaCl2 20 mM, MgCl2 1.0 mM, ZnCl2 100 μM, NaCl 0.5 M for diluted serum and 0.1 M for buffer solutions) was made experimentally in our lab based on previously published assays (Patterson, J. & Hubbell, J. A. Biomaterials 2010, 31, 7836-7845; Turk, B. E. et al., Nature Biotechnology 2001, 19, 661-667; Lowe, S. B. et al., Acs Nano 2012, 6, 851-857). We investigated proteolysis in two ways. In the first approach, we incubated solutions of the ELP-substrate fusion with MMP-1 (100 ng/mL) for 12 h at 40° C. temperature and measured the optical density at 350 nm (OD350) before and after the incubation. In the second approach, we incubated the ELP-substrate fusion with varying concentrations of MMP-1 (0.02 ng/mL to 200 ng/mL) in buffer or in diluted human serum, at 40° C. or 37° C. respectively, a temperature that is above the CMT of the ELP, and monitored the changes OD350 as a function of time (kinetic study). For the kinetic studies, we added the enzyme to the solution after the optical density of the solution reached a steady-state value and repeated the experiments at least three times. […]

[3] = Thermal behavior by optical turbidimetry and dynamic light scattering; type: physicochemical; settings: concentration of 100 μM
Experimental: We confirmed the purity and molecular weight of the purified peptides by electrophoresis (10-20% gradient […] SDS-PAGE, Thermo Scientific, CA) and by matrix-assisted laser desorption/ionization mass spectrometry. Mass spectrometry samples were prepared by mixing the enzymatic reaction product with sinapinic acid in 1:10 ratio. 1 μL of the sample/matrix mixture was then loaded on the grid and the measurements were performed on a Voyager-DE-Pro instrument (Applied Biosystems, Germany). To determine the concentration of the ELP-substrate fusion solutions we used a calculated extinction coefficient (Gill, S. C. & Vonhippel, P. H. Analytical Biochemistry 1989, 182, 319-326) or lyophilized the polypeptide solution. We studied the thermal behavior of the ELP-substrate fusion constructs in both proteolysis buffer (see below) and diluted human serum in the presence and absence of MMP-1 using optical turbidimetry on a temperature-programmed UV-vis spectrometer (Cary 300, Agilent Technologies). To characterize the size of the micelles and aggregates, we used single angle dynamic light scattering (DLS; DynaPro, Protein Solution).
FIG. 2 presents optical densities at 350 nm (OD350) and hydrodynamic diameters of ELP-substrate fusion as a function of temperature prior to, and after, enzymatic reaction. […] These changes are consistent with the self-assembly of ELP-substrate fusions (unimers) into micelles as the temperature is raised above the CMT (Ghoorchian, A. et al., The Journal of Physical Chemistry. B 2013, 117, 8865-8874). We note that there is a slight local maximum in both the optical density and hydrodynamic diameter at temperatures slightly above the CMT, which has been observed previously (Hassouneh, W., Duke University, PhD thesis, 2013); the origin of this small peak is, as yet, unclear.

[4] = target: active PSA (Homo sapiens, UniProt P07288); experiment: Optical density of PSA peptide before and after incubation with active PSA; type: biochemical; settings: 100 μM, 20 ng/mL active PSA, protease buffer, 37° C., 2 hours
Sequence of active PSA (P07288 25-261): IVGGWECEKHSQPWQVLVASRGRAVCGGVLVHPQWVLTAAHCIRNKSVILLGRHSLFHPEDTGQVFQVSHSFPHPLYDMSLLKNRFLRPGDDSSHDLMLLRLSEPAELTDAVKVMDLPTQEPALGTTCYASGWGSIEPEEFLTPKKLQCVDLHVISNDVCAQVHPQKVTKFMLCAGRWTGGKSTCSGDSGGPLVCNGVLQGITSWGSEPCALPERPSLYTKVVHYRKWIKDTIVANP
Experimental: We designed a number of genes and replaced the MMP-1 sensitive peptide described above with a PSA-sensitive peptide sequence. One such example is: M(GVGVP)60[…] (SEQ ID NO:6; referred to herein as PSA peptide). Optical density measurements of 100 μM solution of PSA peptide were obtained prior to and after incubation with 20 ng/mL active PSA in protease buffer at 37° C. for 2 hours.

[5] = target: T2, MMP-1 (Homo sapiens, UniProt P03956); experiment: Transition temperature of UCST biopolymer before and after incubation with MMP-1; type: biochemical; settings: 25 μM, 25 ng/mL MMP-1, 37° C.
T2 sequence (P03956 100-469): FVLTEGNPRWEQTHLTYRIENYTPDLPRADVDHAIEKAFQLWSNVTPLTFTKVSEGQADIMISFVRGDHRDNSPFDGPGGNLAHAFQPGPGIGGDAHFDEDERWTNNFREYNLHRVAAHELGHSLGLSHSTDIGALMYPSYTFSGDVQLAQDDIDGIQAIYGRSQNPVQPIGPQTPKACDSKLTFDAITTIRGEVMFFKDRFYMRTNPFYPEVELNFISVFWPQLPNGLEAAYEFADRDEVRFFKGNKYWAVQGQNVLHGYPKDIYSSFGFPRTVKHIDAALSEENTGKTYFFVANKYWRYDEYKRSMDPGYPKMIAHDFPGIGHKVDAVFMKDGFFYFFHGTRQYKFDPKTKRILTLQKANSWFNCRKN
Excerpt: To exemplify the use of UCST peptides, we changed our system by incorporating a number of UCST biopolymers with the MMP-1 substrate, for example: M(YPSDGRGQ)40YGDGQ VPMSMRGGDEGQQDDEEGY (SEQ ID NO:7; referred to herein as the A4 construct). Cleavage of the protease-sensitive peptide between S and M in this sequence at a constant temperature would increase the transition temperature, which can cause the solution to transition from clear to cloudy. The time that takes for the transition to happen depends on the enzyme concentration similar to in the manner in which the LCST, micellar-based assays described above function.
Accordingly, aggregation time can be used to estimate the enzyme concentration in an unknown solution.

Compound: COc1ccc(S(=O)(=O)N(CC(=O)NO)CC(C)C)cc1 [NNGH, N-isobutyl-N-(4-methoxyphenylsulfonyl)glycyl hydroxamic acid, reference compound]
change in optical density upon addition of the inhibitor [1]: no significant change in optical density
aggregation in diluted serum with added MMP-1 inhibitor [2]: no aggregation

Compound: (GVGVP)60 [reference compound]
soluble unimer-aggregate Tt [3]: ≈ 37 °C

Compound: M(GVGVP)60GDGQSSIYSQTEEQQDDEEG (MGVGVPGDGQSSIYSQTEEQQDDEEG) [PSA peptide]
optical density after incubation with active PSA [4]: increase in optical density of the solution above the transition temperature

transition temperature prior to and after incubation with MMP-1 [5]: change in transition temperature
Compound: M(YPSDGRGQ)40YGDGQ VPMSMRGGDEGQQDDEEGY (MYPSDGRGQYGDGQVPMSMRGGDEGQQDDEEGY) [A4 construct, MMP-sensitive-UCST biopolymer]

From patent publication US20160348147A1, “SYSTEMS AND DEVICES FOR PROTEASE DETECTION BASED ON ENGINEERED POLYMERS AND BIOPOLYMERS AND METHODS OF USE” (DUKE UNIVERSITY, priority 2014, published 2016)
